{"source": "patent US20230167169A1", "about": "(ATRECA, published 2023)", "target": "T1, (NANP)6 (Plasmodium falciparum, biotinylated for the BLI assay (site not stated))", "T1 construct": "Used in both the BLI and SPR assays", "T1 peptide": "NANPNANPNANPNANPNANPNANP", "assay": "BLI; biotinylated target on streptavidin sensor; antibody at 5 µg/mL", "data": [{"binder": "AB-000224 (antibody, V domains shown) VH: EVQLVESGGGLVQPGRSLRLPCTASGFSFGDHAMSWVRQAPGKGLEWVGFIRKTTYGATTHYAAAVRGRFTISRDDSKSIVYLQMNSLKTEDTAVYFCTRVQLDYGPGYQYYGMDVWGQGTTVTVSS VL: ESVLTQPPSVSGAPGQRVTISCTGMNSNIGAGYDVYWYQQLPGRAPKLLIYGNSNRPSGVPDRFSGSRSGTSASLAITGLQAEDEADYYCQSYDTSLNGWAFGGGTKLTVLG", "values": [{"measurement": "kon", "value": 275000, "unit": "M⁻¹ s⁻¹"}]}]}
